Data set [1] concerns P34 N-terminus-RRM1 (lacks RRM2 and C-terminus) (Trypanosoma brucei). Put plainly: filter binding. The conditions noted are these: Filter binding: 10 mM Tris pH 7.4, 1 mM EDTA, 100 mM NaCl, 100 ug/ml BSA, 30 min, room temperature; 0.05 nM 5S rRNA, 0-300 nM protein; Bmax fixed at 100%.
Data set [2] deals with P34 RRM2 (Trypanosoma brucei). The data set is described as follows: filter binding. The conditions noted are these: Filter binding: 10 mM Tris pH 7.4, 1 mM EDTA, 100 mM NaCl, 100 ug/ml BSA, 30 min, room temperature; 0.05 nM 5S rRNA, 0-300 nM protein; Bmax fixed at 100%.
The test system of data set [3] is P34 RRM1-RRM2 (Trypanosoma brucei). Put plainly: filter binding. The following applies: Filter binding: 10 mM Tris pH 7.4, 1 mM EDTA, 100 mM NaCl, 100 ug/ml BSA, 30 min, room temperature; 0.05 nM 5S rRNA, 0-300 nM protein; Bmax fixed at 100%.
Data set [4] has as its system P34 Y176A (Trypanosoma brucei). Put plainly: filter binding. The conditions noted are these: Filter binding: 10 mM Tris pH 7.4, 1 mM EDTA, 100 mM NaCl, 100 ug/ml BSA, 30 min, room temperature; 0.05 nM 5S rRNA, 0-300 nM protein; Bmax fixed at 100%.
The test system of data set [5] is P34 R91A, Y92A (Trypanosoma brucei). Put plainly: filter binding. The following applies: Filter binding: 10 mM Tris pH 7.4, 1 mM EDTA, 100 mM NaCl, 100 ug/ml BSA, 30 min, room temperature; 0.05 nM 5S rRNA, 0-300 nM protein; Bmax fixed at 100%.
The subject of data set [6] is P34 F141A (Trypanosoma brucei). The data set is described as follows: filter binding. The conditions noted are these: Filter binding: 10 mM Tris pH 7.4, 1 mM EDTA, 100 mM NaCl, 100 ug/ml BSA, 30 min, room temperature; 0.05 nM 5S rRNA, 0-300 nM protein; Bmax fixed at 100%.
The test system of data set [7] is P34 full length (WT) (Trypanosoma brucei). Put plainly: filter binding. The conditions noted are these: Filter binding: 10 mM Tris pH 7.4, 1 mM EDTA, 100 mM NaCl, 100 ug/ml BSA, 30 min, room temperature; 0.05 nM 5S rRNA, 0-300 nM protein; Bmax fixed at 100%.
The test system of data set [8] is P34 Y60A (Trypanosoma brucei). Put plainly: filter binding. The following applies: Filter binding: 10 mM Tris pH 7.4, 1 mM EDTA, 100 mM NaCl, 100 ug/ml BSA, 30 min, room temperature; 0.05 nM 5S rRNA, 0-300 nM protein; Bmax fixed at 100%.
The subject of data set [9] is P34 Y92A (Trypanosoma brucei). The data set is described as follows: filter binding. The conditions noted are these: Filter binding: 10 mM Tris pH 7.4, 1 mM EDTA, 100 mM NaCl, 100 ug/ml BSA, 30 min, room temperature; 0.05 nM 5S rRNA, 0-300 nM protein; Bmax fixed at 100%.
The subject of data set [10] is P34 Y174A (Trypanosoma brucei). The data set is described as follows: filter binding. The conditions noted are these: Filter binding: 10 mM Tris pH 7.4, 1 mM EDTA, 100 mM NaCl, 100 ug/ml BSA, 30 min, room temperature; 0.05 nM 5S rRNA, 0-300 nM protein; Bmax fixed at 100%.
For data set [11], the system named is P34 RRM1 (Trypanosoma brucei). Put plainly: filter binding. The conditions noted are these: Filter binding: 10 mM Tris pH 7.4, 1 mM EDTA, 100 mM NaCl, 100 ug/ml BSA, 30 min, room temperature; 0.05 nM 5S rRNA, 0-300 nM protein; Bmax fixed at 100%.
Data set [12] deals with P34 N-terminus-RRM1-RRM2 (lacks C-terminus) (Trypanosoma brucei). The data set is described as follows: filter binding. The following applies: Filter binding: 10 mM Tris pH 7.4, 1 mM EDTA, 100 mM NaCl, 100 ug/ml BSA, 30 min, room temperature; 0.05 nM 5S rRNA, 0-300 nM protein; Bmax fixed at 100%.
Data set [13] concerns the target P34 RRM1 truncate protein (Trypanosoma brucei). Put plainly: co-IP; immune capture: beads coated with anti-P34/P37 antibody incubated with the recombinant proteins (1 μg each) for 1 hr at 4°C, washed three times in PBS-T, eluted in SDS sample buffer; bound L5 (pellet) detected by western blot with anti-L5 antibody; pellet signal normalised to L5 + P34 FL, set to 1; at least three biological replicates.

The target of data set [14] is P34 N-terminus-RRM1 truncate (P34 lacking both RRM2 and the C-terminus) (Trypanosoma brucei). The description is as above.
For data set [15], the target named is P34 R88-91A mutated protein (Trypanosoma brucei). The description is as above.
In data set [16] the target is P34 N-terminus-RRM2 truncate (P34 lacking the C-terminus) (Trypanosoma brucei). The data set is described as above.
The target of data set [17] is P34 RRM2 truncate protein (Trypanosoma brucei). The data set is described as above.
The target of data set [18] is P34 R91A, Y92A mutated protein (Trypanosoma brucei). Described as above.
The target in data set [19] is P34 R88-91K mutated protein (Trypanosoma brucei). The description is as above.
The target of data set [20] is P34 R91A mutated protein (Trypanosoma brucei). Described as above.
The target of data set [21] is P34 RRM1-RRM2 truncate (the RRM domains alone) (Trypanosoma brucei). The description is as above.

This is an account of results in PMC5436847.

For the substance 5S rRNA, the Kd in [1] is 103 nM; in data set [2], 297 nM; in data set [3] it was 67 nM; in [7], 30 nM; in [11], 69 nM; in data set [12] it was 66 nM. Besides, the binding signal (fold affinity increase vs WT) in [4], in [5], in [6], in data set [8], in data set [9] and in data set [10] was 2 throughout.
Regarding ribosomal protein L5 (natural protein), the amount of L5 bound relative to P34 full length (set as 1) (relative to P34 full length = 1) in data set [13] amounted to 0.65; in data set [14], 0.93; in data set [16], 1.1; in [17] it was 0.54; in data set [21], 0.64. The amount of L5 bound relative to P34 WT (set as 1) (relative to P34 WT = 1) worked out at 0.45 in data set [15], 1.5 in data set [18], 0.75 in data set [19] and 1.3 in [20].

As a reminder, the Kd is the concentration at which binding is half-saturated. A lower Kd goes with a tighter complex.
